We go through one molecule from US5658784, “Nucleic acid encoding transcription factor p300 and uses of p300” (Dana-Farber Cancer Institute, Inc., dated 1997).

The test addresses p300 (endogenous human E1A-associated 300 kD protein) (human). In words: co-immunoprecipitation with anti-E1A M73 from 35S labelled infected U-2 OS cells.

B1: E1A proteins of adenovirus dl646 (missing amino acids 30-85) (other)
chain: MRHIICHGGVITEEMAASLLDQLIEEVLAAPGSPEPPHLSRQPEQPEQRALGPVSMPNLVPEVIDLTCHEAGFPPSDDEDEEGEEFVLDYVEHPGHGCRSCHYHRRNTGDPDIMCSLCYMRTCGMFVYSPVSEPEPEPEPEPEPARPTRRPKMAPAILRRPTSPVSRECNSSTDSCDSGPSNTPPEIHPVVPLCPIKPVAVRVGGRRQAVECIEDLLNEPGQPLDLSCKRPRP
Take B1: the binding result is “no binding”.
